The experiment has as its target HLA-A2 (HLA-A*0201) presenting tyrosinase369-377 peptide … on cells (human). The experiment is described as follows: cell-based or functional assay.

The source of these data is US20140348805A1.

Substance “TCR-T58 with murine constant regions (TCRbeta-P2A-TCRalpha, codon-optimized) (from UniProt P01849 1-136)” gave an amount of peptide presented by T2 cells to cause release of 2000 pg/ml interferon-gamma, fold lower than TCR-D115 of 15000 fold; a maximum level of interferon-gamma in 24 hours (T2 cells pulsed with YMD peptide) of 5000 pg/mL; a peptide amount at first detection of cytokine secretion, fold less than TCR-D115 (PBMC pulsed with YMD peptide) of 1000 fold; a peptide concentration for 50% of maximal interferon-gamma release, fold lower than TCR-D115 (T2 cells pulsed with YMD peptide) of 100 fold.
Substance “TCR of T cell clone T58 (TCR-T58), human constant regions (from UniProt P01848 1-140)” had an IFN-γ secretion after co-culture with Mel-93.04A12 (HLA-A2+tyrosinase+) of 1230 pg/mL; a peptide concentration needed for 50% relative lysis (half-maximum lysis), 51Cr-release assay, peptide-pulsed T2 cells of 600 pM; a specific lysis of melanoma cells, 51Cr-release assay of 76%.
